Data as given in patent US20240200044, “EVOLUTION OF TALENS” (President and Fellows of Harvard College, published 2024).

Columns and labels:
[1] = target: omega-Zif268-DBD fusion (Mus musculus, UniProt P08046 SEQ:103-190); test: one_hybrid; pIII-luciferase induction, site at -62, E. coli
[2] = target: ATM-L-directed TALE-omega K59E (synthetic construct, K59E); test: one_hybrid; versus canonical ATM-L TALE; settings: tags: N-terminal FLAG-NLS, C-terminal RNAP omega

Binder | binding signal [1] | binding signal [2]
Zif268 consensus site (dsDNA) DNA 1: GCGTGGGCG DNA 2: CGCCCACGC | ≥ 10 fold | –
ATM left half-site 5'A (dsDNA, [1 (T>A)]) DNA 1: AGAATTGGGATGCTGTTT DNA 2: AAACAGCATCCCAATTCT | – | 2 fold increase
ATM left half-site on-target (dsDNA) DNA 1: TGAATTGGGATGCTGTTT DNA 2: AAACAGCATCCCAATTCA | – | 1.5 fold increase
